System: T1, CC(=O)N[C@H]1[C@H](Oc2ccc([N+](=O)[O-])cc2)O[C@H](CO)[C@@H](O[C@@H]2O[C@H](CO)[C@@H](O[C@@H]3O[C@H](CO)[C@@H](O)[C@H](O)[C@H]3NC(C)=O)[C@H](O)[C@H]2NC(C)=O)[C@@H]1O
T1 construct: synthetic gene, codon-optimised, pPICZαA (EcoRI/KpnI), secreted from Pichia pastoris KM71H, purified by Q-Sepharose
Test: purified protein
Type: biochemical, Talaromyces flavus
Conditions: 50 mM citrate/phosphate pH 5.0, 25 °C, 0.1–6 mM substrate

Chain of TfChit (Talaromyces flavus) (chain, as listed by the source): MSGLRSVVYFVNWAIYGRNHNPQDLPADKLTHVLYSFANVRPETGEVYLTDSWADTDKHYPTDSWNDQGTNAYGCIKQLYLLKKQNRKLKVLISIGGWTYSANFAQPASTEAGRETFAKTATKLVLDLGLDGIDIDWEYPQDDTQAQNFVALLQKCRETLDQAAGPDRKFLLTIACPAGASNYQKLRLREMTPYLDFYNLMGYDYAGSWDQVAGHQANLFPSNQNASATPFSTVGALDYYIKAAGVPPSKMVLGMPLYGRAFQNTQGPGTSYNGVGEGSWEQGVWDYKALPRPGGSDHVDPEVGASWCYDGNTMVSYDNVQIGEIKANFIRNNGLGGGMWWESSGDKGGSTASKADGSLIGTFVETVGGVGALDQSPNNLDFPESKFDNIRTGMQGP
Chain of TfChit (Talaromyces flavus; W209A) (chain, as listed by the source W209A): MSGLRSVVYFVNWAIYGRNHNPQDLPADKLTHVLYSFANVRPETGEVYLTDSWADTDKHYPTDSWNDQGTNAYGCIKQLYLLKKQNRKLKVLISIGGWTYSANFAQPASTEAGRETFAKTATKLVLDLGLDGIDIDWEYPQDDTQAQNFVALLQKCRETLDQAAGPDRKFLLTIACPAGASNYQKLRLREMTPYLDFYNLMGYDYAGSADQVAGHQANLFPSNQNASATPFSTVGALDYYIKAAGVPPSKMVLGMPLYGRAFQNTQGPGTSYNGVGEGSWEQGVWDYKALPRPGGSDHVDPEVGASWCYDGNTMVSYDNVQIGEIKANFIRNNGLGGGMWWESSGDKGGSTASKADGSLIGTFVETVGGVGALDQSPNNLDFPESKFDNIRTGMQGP
Chain of TfChit (Talaromyces flavus; F231W/W209A) (chain, as listed by the source F231W W209A): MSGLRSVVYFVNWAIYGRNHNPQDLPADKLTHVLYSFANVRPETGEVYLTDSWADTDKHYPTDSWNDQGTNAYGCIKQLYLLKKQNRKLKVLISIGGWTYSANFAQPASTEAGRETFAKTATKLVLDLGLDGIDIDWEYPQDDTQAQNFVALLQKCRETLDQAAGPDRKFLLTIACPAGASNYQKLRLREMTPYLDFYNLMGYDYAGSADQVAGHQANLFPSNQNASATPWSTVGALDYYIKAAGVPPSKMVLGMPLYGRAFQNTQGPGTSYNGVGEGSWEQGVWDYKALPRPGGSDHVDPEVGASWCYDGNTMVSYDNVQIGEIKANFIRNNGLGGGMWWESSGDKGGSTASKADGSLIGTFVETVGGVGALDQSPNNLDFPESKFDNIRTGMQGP
Chain of TfChit (Talaromyces flavus; S181W/W209A) (chain, as listed by the source S181W W209A): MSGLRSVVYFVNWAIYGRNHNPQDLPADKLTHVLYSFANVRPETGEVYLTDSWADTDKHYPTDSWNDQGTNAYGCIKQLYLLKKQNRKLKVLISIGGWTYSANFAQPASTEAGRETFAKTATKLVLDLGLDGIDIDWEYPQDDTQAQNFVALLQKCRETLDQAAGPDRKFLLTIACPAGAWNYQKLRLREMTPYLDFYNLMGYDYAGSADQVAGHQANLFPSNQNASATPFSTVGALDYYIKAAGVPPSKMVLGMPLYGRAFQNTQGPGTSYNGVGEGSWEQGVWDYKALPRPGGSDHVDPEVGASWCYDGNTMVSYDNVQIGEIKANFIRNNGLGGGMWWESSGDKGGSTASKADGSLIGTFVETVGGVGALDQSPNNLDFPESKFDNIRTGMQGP
Chain of TfChit (Talaromyces flavus; D136V/S181W) (chain, as listed by the source D136V S181W): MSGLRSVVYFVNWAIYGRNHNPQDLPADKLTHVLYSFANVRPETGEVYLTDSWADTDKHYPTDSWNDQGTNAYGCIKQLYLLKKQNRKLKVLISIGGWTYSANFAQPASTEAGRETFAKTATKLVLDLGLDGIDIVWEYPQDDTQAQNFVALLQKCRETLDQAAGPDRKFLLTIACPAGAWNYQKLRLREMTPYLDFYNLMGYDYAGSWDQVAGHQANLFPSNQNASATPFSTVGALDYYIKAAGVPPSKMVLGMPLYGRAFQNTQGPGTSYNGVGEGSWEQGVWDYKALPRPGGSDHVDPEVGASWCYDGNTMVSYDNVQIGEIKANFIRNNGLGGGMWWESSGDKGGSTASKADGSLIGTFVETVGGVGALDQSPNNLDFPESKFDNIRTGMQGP
Chain of TfChit (Talaromyces flavus; D136V/S181W/W209A) (chain, as listed by the source D136V S181W W209A): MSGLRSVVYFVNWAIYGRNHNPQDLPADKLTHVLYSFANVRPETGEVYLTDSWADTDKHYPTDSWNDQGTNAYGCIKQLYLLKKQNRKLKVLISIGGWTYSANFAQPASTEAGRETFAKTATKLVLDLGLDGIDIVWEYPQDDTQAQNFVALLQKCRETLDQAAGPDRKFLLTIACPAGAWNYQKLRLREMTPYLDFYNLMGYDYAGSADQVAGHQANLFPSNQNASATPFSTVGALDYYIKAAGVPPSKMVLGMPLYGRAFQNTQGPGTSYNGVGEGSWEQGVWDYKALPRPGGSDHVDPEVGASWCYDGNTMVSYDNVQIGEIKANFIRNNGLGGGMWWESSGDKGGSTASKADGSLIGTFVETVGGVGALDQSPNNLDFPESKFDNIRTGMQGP
Chain of TfChit (Talaromyces flavus; D136V) (chain, as listed by the source D136V): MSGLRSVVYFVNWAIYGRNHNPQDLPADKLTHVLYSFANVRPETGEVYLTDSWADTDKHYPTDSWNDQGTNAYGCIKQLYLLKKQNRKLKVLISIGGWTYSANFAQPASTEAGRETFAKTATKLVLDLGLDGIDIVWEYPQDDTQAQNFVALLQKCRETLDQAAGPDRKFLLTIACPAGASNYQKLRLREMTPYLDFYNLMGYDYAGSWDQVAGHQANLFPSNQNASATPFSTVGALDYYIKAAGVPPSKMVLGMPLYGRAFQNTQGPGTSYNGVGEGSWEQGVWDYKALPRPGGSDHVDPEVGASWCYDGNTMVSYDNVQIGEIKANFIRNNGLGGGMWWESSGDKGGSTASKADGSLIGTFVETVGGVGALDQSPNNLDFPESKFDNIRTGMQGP
Chain of TfChit (Talaromyces flavus; D136V/W209A) (chain, as listed by the source D136V W209A): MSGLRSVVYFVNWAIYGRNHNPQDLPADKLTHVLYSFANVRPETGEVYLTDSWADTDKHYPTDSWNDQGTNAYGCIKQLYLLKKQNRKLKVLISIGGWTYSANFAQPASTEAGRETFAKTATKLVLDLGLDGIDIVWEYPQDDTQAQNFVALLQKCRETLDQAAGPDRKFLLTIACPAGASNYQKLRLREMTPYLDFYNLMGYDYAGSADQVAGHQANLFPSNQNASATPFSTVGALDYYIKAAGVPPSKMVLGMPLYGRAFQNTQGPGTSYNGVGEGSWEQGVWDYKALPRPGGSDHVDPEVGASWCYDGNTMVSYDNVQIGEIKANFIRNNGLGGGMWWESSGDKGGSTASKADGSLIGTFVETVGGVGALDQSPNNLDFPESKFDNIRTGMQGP
Chain of TfChit (Talaromyces flavus; F231W) (chain, as listed by the source F231W): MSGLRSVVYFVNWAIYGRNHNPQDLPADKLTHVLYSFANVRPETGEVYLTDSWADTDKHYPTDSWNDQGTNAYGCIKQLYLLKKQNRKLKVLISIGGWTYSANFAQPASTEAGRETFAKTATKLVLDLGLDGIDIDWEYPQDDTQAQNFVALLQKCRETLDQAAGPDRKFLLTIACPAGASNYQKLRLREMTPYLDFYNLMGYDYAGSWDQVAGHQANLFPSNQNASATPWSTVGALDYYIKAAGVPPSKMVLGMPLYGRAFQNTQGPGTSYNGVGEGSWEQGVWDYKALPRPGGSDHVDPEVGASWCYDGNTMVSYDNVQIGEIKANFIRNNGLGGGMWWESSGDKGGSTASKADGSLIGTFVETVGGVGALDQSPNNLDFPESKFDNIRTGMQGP
Chain of TfChit (Talaromyces flavus; S181W) (chain, as listed by the source S181W): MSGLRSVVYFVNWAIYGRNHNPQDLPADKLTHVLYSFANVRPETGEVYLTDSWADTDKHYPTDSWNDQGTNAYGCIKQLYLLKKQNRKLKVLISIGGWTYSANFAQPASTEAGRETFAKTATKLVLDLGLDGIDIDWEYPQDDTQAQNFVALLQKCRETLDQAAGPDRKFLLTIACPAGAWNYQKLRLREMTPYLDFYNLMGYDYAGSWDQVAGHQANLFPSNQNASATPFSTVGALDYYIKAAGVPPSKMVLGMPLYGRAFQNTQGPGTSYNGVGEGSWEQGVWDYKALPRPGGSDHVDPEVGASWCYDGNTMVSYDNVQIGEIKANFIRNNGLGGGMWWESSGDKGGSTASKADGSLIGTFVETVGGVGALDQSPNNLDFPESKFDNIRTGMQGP

| Substance | Km [mmol·L^–1] | kcat [s⁻¹] | kcat/Km [M⁻¹ s⁻¹] |
| --- | --- | --- | --- |
| TfChit (Talaromyces flavus) | 1.2 | 3.9 | 3300 |
| TfChit (Talaromyces flavus; D136V) | 1.1 | 5.3 | 5000 |
| TfChit (Talaromyces flavus; D136V/S181W) | 4.3 | 5.3 | 1200 |
| TfChit (Talaromyces flavus; D136V/S181W/W209A) | 2.0 | 5.6 | 2800 |
| TfChit (Talaromyces flavus; D136V/W209A) | 3.6 | 8.2 | 2200 |
| TfChit (Talaromyces flavus; F231W) | 1.1 | 1.9 | 1800 |
| TfChit (Talaromyces flavus; F231W/W209A) | 1.3 | 4.7 | 3500 |
| TfChit (Talaromyces flavus; S181W) | 1.5 | 6 | 4000 |
| TfChit (Talaromyces flavus; S181W/W209A) | 2.6 | 3.1 | 1200 |
| TfChit (Talaromyces flavus; W209A) | 3.3 | 6.1 | 1900 |
